Data from US20260167699A1 (Chugai, published 2026).

B1: GpH7-A5/GpH7-B3 variant P271_15Y/GpL16-k0 (antibody, human IgG1, kappa)
heavy 1: not shown
heavy 2: not shown
light: DIVMTQSPLSLPVTPGEPASISCQASESLVHSNRNTYLHWYLQKPGQSPQLLIYKVSNRFSGVPDRFSGSGSGTDFTLKISRVEAEDVGVYYCSQNTHVPPTFGQGTKVEIERTVAAPSVFIFPPSDEQLKSGTASVVCLLNNFYPREAKVQWKVDNALQSGNSQESVTEQDSKDSTYSLSSTLTLSKADYEKHKVYACEVTHQGLSSPVTKSFNRGEC
notes: He Ab; copies: 1 + 1 + 2
B2: GpH7-A5/GpH7-B3 variant P331_02A/GpL16-k0 (antibody, human IgG1, kappa)
heavy 1: not shown
heavy 2: not shown
light: DIVMTQSPLSLPVTPGEPASISCQASESLVHSNRNTYLHWYLQKPGQSPQLLIYKVSNRFSGVPDRFSGSGSGTDFTLKISRVEAEDVGVYYCSQNTHVPPTFGQGTKVEIERTVAAPSVFIFPPSDEQLKSGTASVVCLLNNFYPREAKVQWKVDNALQSGNSQESVTEQDSKDSTYSLSSTLTLSKADYEKHKVYACEVTHQGLSSPVTKSFNRGEC
notes: He Ab; copies: 1 + 1 + 2
B3: GpH7-A5/GpH7-B3 variant P331_08L/GpL16-k0 (antibody, human IgG1, kappa)
heavy 1: not shown
heavy 2: not shown
light: DIVMTQSPLSLPVTPGEPASISCQASESLVHSNRNTYLHWYLQKPGQSPQLLIYKVSNRFSGVPDRFSGSGSGTDFTLKISRVEAEDVGVYYCSQNTHVPPTFGQGTKVEIERTVAAPSVFIFPPSDEQLKSGTASVVCLLNNFYPREAKVQWKVDNALQSGNSQESVTEQDSKDSTYSLSSTLTLSKADYEKHKVYACEVTHQGLSSPVTKSFNRGEC
notes: He Ab; copies: 1 + 1 + 2
B4: GpH7-A5/GpH7-B3 variant P331_09D/GpL16-k0 (antibody, human IgG1, kappa)
heavy 1: not shown
heavy 2: not shown
light: DIVMTQSPLSLPVTPGEPASISCQASESLVHSNRNTYLHWYLQKPGQSPQLLIYKVSNRFSGVPDRFSGSGSGTDFTLKISRVEAEDVGVYYCSQNTHVPPTFGQGTKVEIERTVAAPSVFIFPPSDEQLKSGTASVVCLLNNFYPREAKVQWKVDNALQSGNSQESVTEQDSKDSTYSLSSTLTLSKADYEKHKVYACEVTHQGLSSPVTKSFNRGEC
notes: He Ab; copies: 1 + 1 + 2
B5: GpH7-A5/GpH7-B3 variant P331_07I/GpL16-k0 (antibody, human IgG1, kappa)
heavy 1: not shown
heavy 2: not shown
light: DIVMTQSPLSLPVTPGEPASISCQASESLVHSNRNTYLHWYLQKPGQSPQLLIYKVSNRFSGVPDRFSGSGSGTDFTLKISRVEAEDVGVYYCSQNTHVPPTFGQGTKVEIERTVAAPSVFIFPPSDEQLKSGTASVVCLLNNFYPREAKVQWKVDNALQSGNSQESVTEQDSKDSTYSLSSTLTLSKADYEKHKVYACEVTHQGLSSPVTKSFNRGEC
notes: He Ab; copies: 1 + 1 + 2
B6: GpH7-A5/GpH7-B3 variant P331_18N/GpL16-k0 (antibody, human IgG1, kappa)
heavy 1: not shown
heavy 2: not shown
light: DIVMTQSPLSLPVTPGEPASISCQASESLVHSNRNTYLHWYLQKPGQSPQLLIYKVSNRFSGVPDRFSGSGSGTDFTLKISRVEAEDVGVYYCSQNTHVPPTFGQGTKVEIERTVAAPSVFIFPPSDEQLKSGTASVVCLLNNFYPREAKVQWKVDNALQSGNSQESVTEQDSKDSTYSLSSTLTLSKADYEKHKVYACEVTHQGLSSPVTKSFNRGEC
notes: He Ab; copies: 1 + 1 + 2
B7: GpH7-A5/GpH7-B3 variant P331_14T/GpL16-k0 (antibody, human IgG1, kappa)
heavy 1: not shown
heavy 2: not shown
light: DIVMTQSPLSLPVTPGEPASISCQASESLVHSNRNTYLHWYLQKPGQSPQLLIYKVSNRFSGVPDRFSGSGSGTDFTLKISRVEAEDVGVYYCSQNTHVPPTFGQGTKVEIERTVAAPSVFIFPPSDEQLKSGTASVVCLLNNFYPREAKVQWKVDNALQSGNSQESVTEQDSKDSTYSLSSTLTLSKADYEKHKVYACEVTHQGLSSPVTKSFNRGEC
notes: He Ab; copies: 1 + 1 + 2
B8: GpH7-A5/GpH7-B3 variant P329_10E/GpL16-k0 (antibody, human IgG1, kappa)
heavy 1: not shown
heavy 2: not shown
light: DIVMTQSPLSLPVTPGEPASISCQASESLVHSNRNTYLHWYLQKPGQSPQLLIYKVSNRFSGVPDRFSGSGSGTDFTLKISRVEAEDVGVYYCSQNTHVPPTFGQGTKVEIERTVAAPSVFIFPPSDEQLKSGTASVVCLLNNFYPREAKVQWKVDNALQSGNSQESVTEQDSKDSTYSLSSTLTLSKADYEKHKVYACEVTHQGLSSPVTKSFNRGEC
notes: He Ab; copies: 1 + 1 + 2
B9: GpH7-A5/GpH7-B3 variant P271_20W/GpL16-k0 (antibody, human IgG1, kappa)
heavy 1: not shown
heavy 2: not shown
light: DIVMTQSPLSLPVTPGEPASISCQASESLVHSNRNTYLHWYLQKPGQSPQLLIYKVSNRFSGVPDRFSGSGSGTDFTLKISRVEAEDVGVYYCSQNTHVPPTFGQGTKVEIERTVAAPSVFIFPPSDEQLKSGTASVVCLLNNFYPREAKVQWKVDNALQSGNSQESVTEQDSKDSTYSLSSTLTLSKADYEKHKVYACEVTHQGLSSPVTKSFNRGEC
notes: He Ab; copies: 1 + 1 + 2
B10: GpH7-A5/GpH7-B3 variant P271_18N/GpL16-k0 (antibody, human IgG1, kappa)
heavy 1: not shown
heavy 2: not shown
light: DIVMTQSPLSLPVTPGEPASISCQASESLVHSNRNTYLHWYLQKPGQSPQLLIYKVSNRFSGVPDRFSGSGSGTDFTLKISRVEAEDVGVYYCSQNTHVPPTFGQGTKVEIERTVAAPSVFIFPPSDEQLKSGTASVVCLLNNFYPREAKVQWKVDNALQSGNSQESVTEQDSKDSTYSLSSTLTLSKADYEKHKVYACEVTHQGLSSPVTKSFNRGEC
notes: He Ab; copies: 1 + 1 + 2
B11: GpH7-A5/GpH7-B3 variant P271_19Q/GpL16-k0 (antibody, human IgG1, kappa)
heavy 1: not shown
heavy 2: not shown
light: DIVMTQSPLSLPVTPGEPASISCQASESLVHSNRNTYLHWYLQKPGQSPQLLIYKVSNRFSGVPDRFSGSGSGTDFTLKISRVEAEDVGVYYCSQNTHVPPTFGQGTKVEIERTVAAPSVFIFPPSDEQLKSGTASVVCLLNNFYPREAKVQWKVDNALQSGNSQESVTEQDSKDSTYSLSSTLTLSKADYEKHKVYACEVTHQGLSSPVTKSFNRGEC
notes: He Ab; copies: 1 + 1 + 2
B12: GpH7-A5/GpH7-B3 variant P331_16H/GpL16-k0 (antibody, human IgG1, kappa)
heavy 1: not shown
heavy 2: not shown
light: DIVMTQSPLSLPVTPGEPASISCQASESLVHSNRNTYLHWYLQKPGQSPQLLIYKVSNRFSGVPDRFSGSGSGTDFTLKISRVEAEDVGVYYCSQNTHVPPTFGQGTKVEIERTVAAPSVFIFPPSDEQLKSGTASVVCLLNNFYPREAKVQWKVDNALQSGNSQESVTEQDSKDSTYSLSSTLTLSKADYEKHKVYACEVTHQGLSSPVTKSFNRGEC
notes: He Ab; copies: 1 + 1 + 2
B13: GpH7-A5/GpH7-B3 variant P331_06M/GpL16-k0 (antibody, human IgG1, kappa)
heavy 1: not shown
heavy 2: not shown
light: DIVMTQSPLSLPVTPGEPASISCQASESLVHSNRNTYLHWYLQKPGQSPQLLIYKVSNRFSGVPDRFSGSGSGTDFTLKISRVEAEDVGVYYCSQNTHVPPTFGQGTKVEIERTVAAPSVFIFPPSDEQLKSGTASVVCLLNNFYPREAKVQWKVDNALQSGNSQESVTEQDSKDSTYSLSSTLTLSKADYEKHKVYACEVTHQGLSSPVTKSFNRGEC
notes: He Ab; copies: 1 + 1 + 2
B14: GpH7-A5/GpH7-B3 variant P331_04F/GpL16-k0 (antibody, human IgG1, kappa)
heavy 1: not shown
heavy 2: not shown
light: DIVMTQSPLSLPVTPGEPASISCQASESLVHSNRNTYLHWYLQKPGQSPQLLIYKVSNRFSGVPDRFSGSGSGTDFTLKISRVEAEDVGVYYCSQNTHVPPTFGQGTKVEIERTVAAPSVFIFPPSDEQLKSGTASVVCLLNNFYPREAKVQWKVDNALQSGNSQESVTEQDSKDSTYSLSSTLTLSKADYEKHKVYACEVTHQGLSSPVTKSFNRGEC
notes: He Ab; copies: 1 + 1 + 2
B15: GpH7-A5/GpH7-B3 variant P331_10E/GpL16-k0 (antibody, human IgG1, kappa)
heavy 1: not shown
heavy 2: not shown
light: DIVMTQSPLSLPVTPGEPASISCQASESLVHSNRNTYLHWYLQKPGQSPQLLIYKVSNRFSGVPDRFSGSGSGTDFTLKISRVEAEDVGVYYCSQNTHVPPTFGQGTKVEIERTVAAPSVFIFPPSDEQLKSGTASVVCLLNNFYPREAKVQWKVDNALQSGNSQESVTEQDSKDSTYSLSSTLTLSKADYEKHKVYACEVTHQGLSSPVTKSFNRGEC
notes: He Ab; copies: 1 + 1 + 2
B16: GpH7-A5/GpH7-B3 variant P331_03V/GpL16-k0 (antibody, human IgG1, kappa)
heavy 1: not shown
heavy 2: not shown
light: DIVMTQSPLSLPVTPGEPASISCQASESLVHSNRNTYLHWYLQKPGQSPQLLIYKVSNRFSGVPDRFSGSGSGTDFTLKISRVEAEDVGVYYCSQNTHVPPTFGQGTKVEIERTVAAPSVFIFPPSDEQLKSGTASVVCLLNNFYPREAKVQWKVDNALQSGNSQESVTEQDSKDSTYSLSSTLTLSKADYEKHKVYACEVTHQGLSSPVTKSFNRGEC
notes: He Ab; copies: 1 + 1 + 2
B17: GpH7-A5/GpH7-B3 variant P331_13S/GpL16-k0 (antibody, human IgG1, kappa)
heavy 1: not shown
heavy 2: not shown
light: DIVMTQSPLSLPVTPGEPASISCQASESLVHSNRNTYLHWYLQKPGQSPQLLIYKVSNRFSGVPDRFSGSGSGTDFTLKISRVEAEDVGVYYCSQNTHVPPTFGQGTKVEIERTVAAPSVFIFPPSDEQLKSGTASVVCLLNNFYPREAKVQWKVDNALQSGNSQESVTEQDSKDSTYSLSSTLTLSKADYEKHKVYACEVTHQGLSSPVTKSFNRGEC
notes: He Ab; copies: 1 + 1 + 2
B18: GpH7-A5/GpH7-B3 variant P329_02A/GpL16-k0 (antibody, human IgG1, kappa)
heavy 1: not shown
heavy 2: not shown
light: DIVMTQSPLSLPVTPGEPASISCQASESLVHSNRNTYLHWYLQKPGQSPQLLIYKVSNRFSGVPDRFSGSGSGTDFTLKISRVEAEDVGVYYCSQNTHVPPTFGQGTKVEIERTVAAPSVFIFPPSDEQLKSGTASVVCLLNNFYPREAKVQWKVDNALQSGNSQESVTEQDSKDSTYSLSSTLTLSKADYEKHKVYACEVTHQGLSSPVTKSFNRGEC
notes: He Ab; copies: 1 + 1 + 2
B19: GpH7-A5/GpH7-B3 variant P331_15Y/GpL16-k0 (antibody, human IgG1, kappa)
heavy 1: not shown
heavy 2: not shown
light: DIVMTQSPLSLPVTPGEPASISCQASESLVHSNRNTYLHWYLQKPGQSPQLLIYKVSNRFSGVPDRFSGSGSGTDFTLKISRVEAEDVGVYYCSQNTHVPPTFGQGTKVEIERTVAAPSVFIFPPSDEQLKSGTASVVCLLNNFYPREAKVQWKVDNALQSGNSQESVTEQDSKDSTYSLSSTLTLSKADYEKHKVYACEVTHQGLSSPVTKSFNRGEC
notes: He Ab; copies: 1 + 1 + 2
B20: GpH7-A5/GpH7-B3 variant P329_09D/GpL16-k0 (antibody, human IgG1, kappa)
heavy 1: not shown
heavy 2: not shown
light: DIVMTQSPLSLPVTPGEPASISCQASESLVHSNRNTYLHWYLQKPGQSPQLLIYKVSNRFSGVPDRFSGSGSGTDFTLKISRVEAEDVGVYYCSQNTHVPPTFGQGTKVEIERTVAAPSVFIFPPSDEQLKSGTASVVCLLNNFYPREAKVQWKVDNALQSGNSQESVTEQDSKDSTYSLSSTLTLSKADYEKHKVYACEVTHQGLSSPVTKSFNRGEC
notes: He Ab; copies: 1 + 1 + 2
B21: GpH7-A5/GpH7-B3 variant P331_11K/GpL16-k0 (antibody, human IgG1, kappa)
heavy 1: not shown
heavy 2: not shown
light: DIVMTQSPLSLPVTPGEPASISCQASESLVHSNRNTYLHWYLQKPGQSPQLLIYKVSNRFSGVPDRFSGSGSGTDFTLKISRVEAEDVGVYYCSQNTHVPPTFGQGTKVEIERTVAAPSVFIFPPSDEQLKSGTASVVCLLNNFYPREAKVQWKVDNALQSGNSQESVTEQDSKDSTYSLSSTLTLSKADYEKHKVYACEVTHQGLSSPVTKSFNRGEC
notes: He Ab; copies: 1 + 1 + 2
B22: GpH7-A5/GpH7-B3 variant P271_16H/GpL16-k0 (antibody, human IgG1, kappa)
heavy 1: not shown
heavy 2: not shown
light: DIVMTQSPLSLPVTPGEPASISCQASESLVHSNRNTYLHWYLQKPGQSPQLLIYKVSNRFSGVPDRFSGSGSGTDFTLKISRVEAEDVGVYYCSQNTHVPPTFGQGTKVEIERTVAAPSVFIFPPSDEQLKSGTASVVCLLNNFYPREAKVQWKVDNALQSGNSQESVTEQDSKDSTYSLSSTLTLSKADYEKHKVYACEVTHQGLSSPVTKSFNRGEC
notes: He Ab; copies: 1 + 1 + 2

target: T1, FcγRIIIa extracellular domain, C-terminal His tag (human, UniProt P08637 17-208); experiment: SPR, binding activity relative to GpH7-A5/GpH7-B3/GpL16-k0 (=100)
T1 construct: extracellular domain; also called 3a
T1 sequence (P08637 other isoform, or with tags, fused parts or gaps): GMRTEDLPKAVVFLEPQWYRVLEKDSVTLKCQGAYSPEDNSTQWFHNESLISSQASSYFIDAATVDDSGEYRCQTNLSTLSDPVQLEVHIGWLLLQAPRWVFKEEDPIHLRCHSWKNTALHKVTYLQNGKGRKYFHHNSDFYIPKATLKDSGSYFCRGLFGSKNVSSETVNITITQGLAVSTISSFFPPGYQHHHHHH

Row | Binder | He/Con 3a
1 | B1 | 62.7%
2 | B2 | 82.5%
3 | B3 | 66%
4 | B4 | 71.6%
5 | B5 | 60.4%
6 | B6 | 67.1%
7 | B7 | 67.8%
8 | B8 | 52.7%
9 | B9 | 77.8%
10 | B10 | 94%
11 | B11 | 84.6%
12 | B12 | 73.4%
13 | B13 | 68.4%
14 | B14 | 70.7%
15 | B15 | 68.7%
16 | B16 | 66.9%
17 | B17 | 80.9%
18 | B18 | 55.2%
19 | B19 | 74.9%
20 | B20 | 52.5%
21 | B21 | 61.8%
22 | B22 | 70.3%
